Bridges are numbered along the chain shown (N, C = ends). Primed or numbered codes have the meaning given here. [ ]: non-standard residue; d: D form. cleavable peptide, 4x polyethylene glycol = not defined here; Ygp = O-(8x polyethylene glycol-amino)-tyrosine; Yn3 = O-(9x polyethylene glycol-azido)-tyrosine; cleavable moiety, PEG9 = not defined here; PEG4′ = 4x polyethylene glycol; PEG9″ = 9x polyethylene glycol; hSer = N[C@@H](CCO)C(=O)O; Nle = CCCC[C@H](N)C(=O)O

This is an account of results in patent US20240417436A1 (BRIGHT PEAK THERAPEUTICS, published 2024).

T1: IL-2 receptor βγ complex on pan T cells (human, UniProt P14784 27-551; P31785 23-369)
T1 sequence (looked up) 1: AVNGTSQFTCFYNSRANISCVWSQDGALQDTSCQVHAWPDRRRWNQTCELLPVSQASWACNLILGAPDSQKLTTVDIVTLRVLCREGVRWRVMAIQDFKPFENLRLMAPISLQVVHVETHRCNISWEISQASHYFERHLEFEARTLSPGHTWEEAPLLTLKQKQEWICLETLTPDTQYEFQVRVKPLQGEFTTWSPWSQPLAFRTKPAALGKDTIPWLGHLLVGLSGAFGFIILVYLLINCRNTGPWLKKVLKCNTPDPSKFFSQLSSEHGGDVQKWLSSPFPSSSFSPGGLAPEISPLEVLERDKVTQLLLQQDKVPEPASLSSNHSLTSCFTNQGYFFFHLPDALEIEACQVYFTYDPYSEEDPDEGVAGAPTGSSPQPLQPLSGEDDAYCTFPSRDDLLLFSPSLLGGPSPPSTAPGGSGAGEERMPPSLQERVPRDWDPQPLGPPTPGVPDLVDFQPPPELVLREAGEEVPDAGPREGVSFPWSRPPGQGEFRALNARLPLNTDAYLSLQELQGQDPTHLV
T1 sequence (looked up) 2: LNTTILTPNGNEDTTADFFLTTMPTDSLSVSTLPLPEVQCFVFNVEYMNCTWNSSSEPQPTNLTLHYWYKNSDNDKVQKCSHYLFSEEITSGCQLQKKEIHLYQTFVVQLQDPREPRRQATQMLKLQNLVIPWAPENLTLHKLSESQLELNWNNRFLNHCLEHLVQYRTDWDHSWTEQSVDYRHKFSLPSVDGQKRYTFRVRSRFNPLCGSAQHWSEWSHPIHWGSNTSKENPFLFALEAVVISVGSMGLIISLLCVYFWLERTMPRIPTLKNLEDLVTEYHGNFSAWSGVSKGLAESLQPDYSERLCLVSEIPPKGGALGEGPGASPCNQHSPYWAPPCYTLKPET

B1: CMP-157, MMP2 cleaved (ligand)
chain: PLGLAGAPTSSSTKKTQLQLEHLLEDLQ[Nle]ILNGINNYKNPKLTR[Nle]L[hSer][Yn3]KF[Ygp][Nle]PKKATELKHLQCLEEELKPLEEVL[hSer]LAQSKNFHLRPRDLISNINVIVLELKGSETTF[hSer]CEYADETATIVEFLNRWITFSQSIISTLT
modifications: also: macrocycle (4x PEG linker between residue 1 and Glu25 side chain) opened by MMP2 cleavage within PLGLAG, cut site not given here
B2: CMP-161, MMP2 cleaved (ligand)
chain: PLGLAGAPTSSSTKKTQLQLEHLLLDLQ[Nle]ILEGINNYKNPKLTR[Nle]L[hSer][Yn3]KF[Ygp][Nle]PKKATELKHLQCLEEELKPLEEVL[hSer]LAQSKNFHLRPRDLISNINVIVLELKGSETTF[hSer]CEYADETATIVEFLNRWITFSQSIISTLT
modifications: not fully specified; ends and bridges not checked; also: before cut, residues 1..32 linked via PEG9 (Glu32 side chain)
B3: CMP-158 (ligand)
chain: APTSSSTKKTQLQLEHLLLDLE[Nle]ILNGINNYKNPKLTR[Nle]L[hSer][Yn3]KF[Ygp][Nle]PKKATELKHLQCLEEELKPLEEVL[hSer]LAQSKNFHLRPRDLISNINVIVLELKGSETTF[hSer]CEYADETATIVEFLNRWITFSQSIISTLT
modifications: linker N-22 via cleavable peptide, 4x polyethylene glycol; not fully specified; reading uncertain
B4: CMP-159 (ligand)
chain: PLGLAGAPTSSSTKKTQLQLEHLLLDLE[Nle]ILNGINNYKNPKLTR[Nle]L[hSer][Yn3]KF[Ygp][Nle]PKKATELKHLQCLEEELKPLEEVL[hSer]LAQSKNFHLRPRDLISNINVIVLELKGSETTF[hSer]CEYADETATIVEFLNRWITFSQSIISTLT
modifications: linker N-28 via PEG4′; ends not checked
B5: CMP-158, MMP2 cleaved (ligand)
chain: APTSSSTKKTQLQLEHLLLDLE[Nle]ILNGINNYKNPKLTR[Nle]L[hSer][Yn3]KF[Ygp][Nle]PKKATELKHLQCLEEELKPLEEVL[hSer]LAQSKNFHLRPRDLISNINVIVLELKGSETTF[hSer]CEYADETATIVEFLNRWITFSQSIISTLT
modifications: also: MMP2-cleaved cleavable peptide, macrocycle opened, cut site not given here, remnants on Glu22 and N-terminus unspecified
B6: CMP-162, MMP2 cleaved (ligand)
chain: APTSSSTKKTQLQLEHLLLDLQKILNGINNYKNPKLTR[Nle]L[hSer][Yn3]KF[Ygp][Nle]PKKATELKHLQCLEEELKPLEEVL[hSer]LAQSKNFHLRPRDLISNINVIVLELKGSETTF[hSer]CEYADETATIVEFLNRWITFSQSIISTLT
modifications: not fully specified (residue 23); ends and bridges not checked; also: cleavable peptide on Lys23 cut by MMP2, remnant stays attached, cut site not given here
B7: CMP-160 (ligand)
chain: APTSSSTKKTQLQLEHLLLDLQ[Nle]ILEGINNYKNPKLTR[Nle]L[hSer][Yn3]KF[Ygp][Nle]PKKATELKHLQCLEEELKPLEEVL[hSer]LAQSKNFHLRPRDLISNINVIVLELKGSETTF[hSer]CEYADETATIVEFLNRWITFSQSIISTLT
modifications: linker N-26 via cleavable moiety, PEG9; ends not checked; also: cleavable moiety sequence not given here
B8: CMP-159, MMP2 cleaved (ligand)
chain: PLGLAGAPTSSSTKKTQLQLEHLLLDLE[Nle]ILNGINNYKNPKLTR[Nle]L[hSer][Yn3]KF[Ygp][Nle]PKKATELKHLQCLEEELKPLEEVL[hSer]LAQSKNFHLRPRDLISNINVIVLELKGSETTF[hSer]CEYADETATIVEFLNRWITFSQSIISTLT
modifications: not fully specified (bridges); ends and bridges not checked; also: cleaved by MMP2 (macrocycle opened), cut site not given here
B9: CMP-162 (ligand)
chain: APTSSSTKKTQLQLEHLLLDLQKILNGINNYKNPKLTR[Nle]L[hSer][Yn3]KF[Ygp][Nle]PKKATELKHLQCLEEELKPLEEVL[hSer]LAQSKNFHLRPRDLISNINVIVLELKGSETTF[hSer]CEYADETATIVEFLNRWITFSQSIISTLT
modifications: not fully specified (residue 23); ends and bridges not checked; also: cleavable moiety on Lys23 side chain, structure not given here
B10: CMP-161 (ligand)
chain: PLGLAGAPTSSSTKKTQLQLEHLLLDLQ[Nle]ILEGINNYKNPKLTR[Nle]L[hSer][Yn3]KF[Ygp][Nle]PKKATELKHLQCLEEELKPLEEVL[hSer]LAQSKNFHLRPRDLISNINVIVLELKGSETTF[hSer]CEYADETATIVEFLNRWITFSQSIISTLT
modifications: linker N-32 via PEG9″; ends not checked
B11: CMP-160, MMP2 cleaved (ligand)
chain: APTSSSTKKTQLQLEHLLLDLQ[Nle]ILEGINNYKNPKLTR[Nle]L[hSer][Yn3]KF[Ygp][Nle]PKKATELKHLQCLEEELKPLEEVL[hSer]LAQSKNFHLRPRDLISNINVIVLELKGSETTF[hSer]CEYADETATIVEFLNRWITFSQSIISTLT
modifications: ends and bridges not checked; also: cleavable moiety between Glu26 side chain and N-terminus (via PEG9) cut by MMP2, macrocycle opened, cut site not given here
B12: CMP-163, MMP2 cleaved (ligand)
chain: APTSSSTKKTQLQLEHLLLDLQKILNGINNYKNPKLTR[Nle]L[hSer][Yn3]KF[Ygp][Nle]PKKATELKHLQCLEEELKPLEEVL[hSer]LAQSKNFHLRPRDLISNINVIVLELKGSETTF[hSer]CEYADETATIVEFLNRWITFSQSIISTLT
modifications: not fully specified (residue 23, N-terminus); ends and bridges not checked; also: macrocycle (Lys23 side chain - cleavable peptide - PEG4 - glutaryl - Ala1) cut by MMP2, cut site not given here

One assay addresses T1, IL-2 receptor βγ complex on pan T cells. The assay is described as follows: cell-based or functional assay.
Consider B1, for which the “Average EC50, pSTAT5 assay in pan T cells, MMP2 cleaved molecule” value (shortened to “Average EC50 … MMP2 cleaved molecule”) stood at 10 nM. On the same count and under the same terms, the result for B2 reads 3.59 nM. As to B3, the “Average EC50, pSTAT5 assay in pan T cells, intact molecule” value (“Average EC50 … intact molecule” below) is 36.6 nM. The same measure, in the same setting: the result for B4 reads 35.5 nM. On to B5, for which the “Average EC50 … MMP2 cleaved molecule” value is 1.95 nM. The same measure, in the same setting: the result for B6 reads 0.758 nM. Turning to B7, the “Average EC50 … intact molecule” value worked out at 27.8 nM. For B8, the “Average EC50 … MMP2 cleaved molecule” value stood at 2.27 nM. For the molecule B9, the “Average EC50 … intact molecule” value is 2.79 nM.

Take B10: the “Average EC50 … intact molecule” value turned out to be 29.4 nM. On to B11, for which the “Average EC50 … MMP2 cleaved molecule” value is 2.21 nM.

Another assay has the same target. The assay is described as follows: cell-based or functional assay. This is another data set of the same source.
As to B12, the “Average EC50 … MMP2 cleaved molecule” value came to 0.76 nM.
